From US20260158142A1 (published 2026)

Molecular target: T1, human amyloid beta (Aβ42), T cell epitope peptide on H2-IAb (mouse)
T1 peptide: KLVFFAEDVGSNKGA
Test: multimer staining

binding result: recognises
B1: Aβ-Th1 TCR (TCR, V domains shown)
Valpha: QQQVRQSPQSLTVWEGETAILNCSYENSAFDYFPWYQQFPGEGPALLISILSVSNKKEDGRFTIFFNKREKKLSLHIADSQPGDSATYFCAGGDYANKMIFGLGTILRVRP
Vbeta: DPKIIQKPKYLVAVTGSEKILICEQYLGHNAMYWYRQSAKKPLEFMFSYSYQKLMDNQTASSRFQPQSSKKNHLDLQITALKPDDSATYFCASSQDRSYNSPLYFAAGTRLTVT
